Earlier results in article PMC7640956.

Molecular target: Spike RBD (Severe acute respiratory syndrome coronavirus 2) (UniProt P0DTC2)

ACE2-derived 23-mer peptide (from UniProt Q9BYF1)
Kd: 47 nM
